# Data: publication PMC8564726, “Heterodimerization of H3K9 histone methyltransferases G9a and GLP activates methyl reading and writing capabilities” (The Journal of Biological Chemistry, 2021)
# Entries after “also recorded” stand apart in the source; their conditions may differ.
# B1: G9a-G9a: homodimer of G9a truncated to the C-terminal ANK and SET domains (ANK-SET) (protein)
# chain: MRGLPRGRGLMRARGRGRAAPTGGRGRGRGGAHRGRGRPRSLLSLPRAQASWAPQLPAGLTGPPVPCLPSQGEAPAEMGALLLEKEPRGAAERVHSSLGDTPQSEETLPKANPDSLEPAGPSSPASVTVTVGDEGADTPVGAASLIGDEPESLEGDGGRIVLGHATKSFPSSPSKGGACPSRAKMSMTGAGKSPPSVQSLAMRLLSMPGAQGAATAGPEPSPATTAAQEGQPKVHRARKTMSKPSNGQPPIPEKRPPEVQHFRMSDDMHLGKVTSDVAKRRKLNSGSLSEDLGSAGGSGDIILEKGEPRPLEEWETVVGDDFSLYYDAYSVDERVDSDSKSEVEALAEQLSEEEEEEEEEEEEEEEEEEEEEEEEEDEESGNQSDRSGSSGRRKAKKKWRKDSPWVKPSRKRRKREPPRAKEPRGVNGVGSSGPSEYMEVPLGSLELPSEGTLSPNHAGVSNDTSSLETERGFEELPLCSCRMEAPKIDRISERAGHKCMATESVDGELLGCNAAILKRETMRPSSRVALMVLCEAHRARMVKHHCCPGCGYFCTAGTFLECHPDFRVAHRFHKACVSQLNGMVFCPHCGEDASEAQEVTIPRGDGGTPPIGTAAPALPPLAHDAPGRADTSQPSARMRGHGEPRRPPCDPLADTIDSSGPSLTLPNGGCLSAVGLPPGPGREALEKALVIQESERRKKLRFHPRQLYLSVKQGELQKVILMLLDNLDPNFQSDQQSKRTPLHAAAQKGSVEICHVLLQAGANINAVDKQQRTPLMEAVVNNHLEVARYMVQLGGCVYSKEEDGSTCLHHAAKIGNLEMVSLLLSTGQVDVNAQDSGGWTPIIWAAEHKHIDVIRMLLTRGADVTLTDNEENICLHWASFTGSAAIAEVLLNAQCDLHAVNYHGDTPLHIAARESYHDCVLLFLSRGANPELRNKEGDTAWDLTPERSDVWFALQLNRKLRLGVGNRAVRTEKIICRDVARGYENVPIPCVNGVDGEPCPEDYKYISENCETSTMNIDRNITHLQHCTCVDDCSSSNCLCGQLSIRCWYDKDGRLLQEFNKIEPPLIFECNQACSCWRSCKNRVVQSGIKVRLQLYRTAKMGWGVRALQTIPQGTFICEYVGELISDAEADVREDDSYLFDLDNKDGEVYCIDARYYGNISRFINHLCDPNIIPVRVFMLHQDLRFPRIAFFSSRDIRTGEELGFDYGDRFWDIKSKYFTCQCGSEKCKHSAEAIALEQSRLARLDPHPELLPDLSSLPPINT
# How the values were obtained:
# H3_1–20 K9me2 peptide = experiment: Fluorescence polarization binding to H3K9me2 peptide; conditions: listed as G9a
# Procedure: (§1) Polarization assays with fluoresceinated H3_1–20 K9me1 or K9me2 peptides, 147 bp 601 DNA template, and core nucleosomes were performed and Kd values estimated as described ([11]) with the following modifications: The reaction buffer was 100 mM Tris pH 8, 100 mM KCl, 1 mM MgCl2, 20 μM ZnSO4, 10 mM BME, 0.1% NP-40. The concentration of peptides and nucleosomes was 150 nM and 200 nM for DNA. Polarization measurements were conducted on a Biotek Cytation 5 (peptide and nucleosome) or Molecular Devices Spectramax (DNA) plate reader with low-volume plates (Corning) in either 10 μl (peptide, nucleosome) or 40 μl (DNA) total volume.
# [1] = system: H3K9me1 monomethylated mononucleosomes; experiment: Fluorescence polarization binding to H3K9me1 mononucleosome
# From the text: (§2) Histone proteins and nucleosomes were purified as described ([11], [26]) with modifications (see Supporting methods). For fluorescence polarization, nucleosomes were reconstituted with a 5ʹ fluoresceinated DNA template. H3K9 dimethylation was installed via Methyl-Lysine Analog (MLA) technology as described ([10], [26]). K9 MLA-monomethylated H3 was purchased from Active Motif. H3K27A was introduced by site-directed mutagenesis and purified as described ([26]).
# as §1
# H3_1–20 K9me1 peptide = experiment: Fluorescence polarization binding to H3K9me1 peptide; conditions: listed as G9a
# Procedure: as §1
# H3_1–20 peptide = experiment: H3 tail peptide methylation kinetics (multiple turnover); type: biochemical; conditions: Michaelis–Menten, 9 μM 3H-SAM + 1000 μM cold SAM, 0.4 to 0.8 μM enzyme, pH 8, duplicates, 95% CI: G9a-G9a 24.6-34.6, GLP-GLP 9.5-15.5, G9a-GLP 26.0-34.5, G9aS-GLP 20.5-28.3, listed as G9a
# Procedure: Substrate peptides or nucleosomes were mixed in a solution containing 9 μM tritiated S-Adenosyl Methionine (SAM, PerkinElmer) cofactor, and reactions were initiated upon addition of 0.4 to 0.8 μM enzyme. Peptide reactions were supplemented with 1000 μM cold SAM to fully saturate the SAM-binding pocket (Fig. S3). Due to signal limitations, nucleosome reactions were not supplemented with SAM (see Supporting methods). Reactions were run in 100 mM Tris pH 8, 100 mM KCl, 1 mM MgCl2, 20 μM ZnSO4, 10 mM BME and quenched with laemmli buffer. Peptide reactions were performed as described ([11]). Nucleosome methylation reactions were read out via autoradiography as described ([11]), except that proteins were separated on an 18% SDS PAGE gel.
# All methylation reactions (except Fig. S4A) were performed under Multiple Turnover conditions ([25]). To determine initial rates, methylation time courses were traced at various concentrations of H3K9-containing substrate while keeping the concentration of SAM and enzyme constant. Plots of initial rate versus concentration H3K9 substrate measured in duplicate or triplicate were fit to V = Vmax∗[S]/(KM + [S]) using Prism software to extract KM and kcat (or kobs) values as well as the 95% confidence interval bounds of the fit. See Supporting methods for special considerations for nucleosome kinetics.
# [2] = target: unmethylated (H3K9me0) mononucleosomes; experiment: Fluorescence polarization binding to unmethylated mononucleosome; conditions: 147 bp 601 DNA 5ʹ fluorescein-labeled nucleosomes, 150 nM, pH 8, 100 mM KCl, 0.1% NP-40, 95% CI (μM): G9a 6.4-8.6, G9a-GLP 5.6-7.6, GLP-GLP 17.4-41.5, read-out: Kd, unmethylated (me0) mononucleosome
# From the text: as §2, §1
# [3] = system: H3K9me2 dimethylated mononucleosomes; experiment: Fluorescence polarization binding to H3K9me2 mononucleosome
# From the text: as §2, §1
molecule,measurement,setting,value
B1,"affinity for H3K9me2 peptide, in words",H3_1–20 K9me2 peptide,no discernable affinity for me1 or me2 peptides; also recorded: does not recognize H3K9me1/2 peptides
same,"binding to H3K9me1 nucleosomes, in words",[1],decreases compared with unmethylated nucleosomes
same,"affinity for H3K9me1 peptide, in words",H3_1–20 K9me1 peptide,no discernable affinity for me1 or me2 peptides; also recorded: does not recognize H3K9me1/2 peptides
same,"kcat, H3_1–20 peptide",H3_1–20 peptide,~0.55 s⁻¹
same,Kd,[2],6 to 7 µM
same,"binding to H3K9me2 nucleosomes, in words",[3],decreases compared with unmethylated nucleosomes
